According to patent publication US11999771B2, “IL-7Rαγc ligand immunoglobulin fusion proteins” (MEDIKINE, INC., priority 2022, dated 2024):

Experiment: Pharmacokinetics of the IL-7Rαγc IgG2-Fc fusion protein in non-human primates (serum level quantified by TF-1-7Rα STAT5 phosphorylation bioassay)
Assay type: in vivo
Conditions: single dose of 1 mg/kg
Description: A pharmacokinetic study of an IL-7Rαγc IgG2-Fc fusion protein was performed in non-human primates. The IL-7Rαγc IgG2-Fc fusion having SEQ ID NO: 45 was administered intravenously (IV), subcutaneously (SC), or intramuscularly (IM) with a single dose of 1 mg/kg into each non-human primate (n=10). Blood samples were collected at times post-dose into serum separator vials. Samples were centrifuged at 10,000× g for 5 min at 4° C. followed by transferring the serum to a new tube. Samples were frozen and stored at −80° C. prior to testing.
The TF-1-7Rα STAT5 phosphorylation bioassay was used to quantity the amount of the IL-7Rαγc IgG2-Fc fusion in each of the serum samples. Three-fold serial dilutions of each serum sample or a compound reference standard in starvation media were added to the cells and incubated for 30 mins with the cells. Cells extracts were prepared and the quantity of phosphorylated STAT5 was determined as described in Example 3. The IL-7Rαγc IgG2-Fc fusion protein concentration in each serum sample was calculated using a standard curve generated from the reference standard.

B1: hu-IgG2-Fc-(GS)10GG-IL-7Raγc (protein)
chain: ERKSSVECPPCPAPPVAGPSVFLFPPKPKDTLMISRTPEVTCVVVDVSHEDPEVQFNWYVDGVEVHNAKTKPREEQFNSTFRVVSVLTVVHQDWLNGKEYKCKVSNKGLPAPIEKTISKTKGQPREPQVYTLPPSREEMTKNQVSLTCLVKGFYPSDIAVEWESNGQPENNYKTTPPMLDSDGSFFLYSKLTVDKSRWQQGNVFSCSVMHEALHNHYTQKSLSLSPGAGSGSGSGSGSGSGSGSGSGSGGGWGIPWCTLDPGSLQCAWLGKHGGGGSGGVVCQDWEGVELCWQGG
notes: IL-7R agonist
Intramuscular vs intravenous
  bioavailability % F for IM administration: 117%
Subcutaneous vs intravenous
  bioavailability % F for SC administration: 112%
